What all share (assay): peptide or protein array; ProtoArray human protein microarray (proteins arrayed in duplicate on nitrocellulose coated glass slide, native conditions) probed with 1 µM AlexaFluor 532-A2C sorcin in the presence of either 1 mM EDTA or 1 mM CaCl2
What all share (details): both partners purified

The target in test [1] is T1, Polo-like kinase 1 (PLK1), human, on ProtoArray (human, UniProt P53350 1-603).
T1 construct: Polo-like kinase 1, human, full length protein of the ProtoArray; In the functional row this id stands for purified recombinant PLK1 bought from Cell Signaling Technology (#7728); source: bought: ProtoArray human protein microarray (Life technologies), individually purified and arrayed

In test [2] the target is T2, Aurora A kinase, human, on ProtoArray (human, UniProt O14965 1-403).
T2 construct: Aurora A kinase, human, full length protein of the ProtoArray; source: bought: ProtoArray human protein microarray (Life technologies), individually purified and arrayed
T2 sequence (looked up): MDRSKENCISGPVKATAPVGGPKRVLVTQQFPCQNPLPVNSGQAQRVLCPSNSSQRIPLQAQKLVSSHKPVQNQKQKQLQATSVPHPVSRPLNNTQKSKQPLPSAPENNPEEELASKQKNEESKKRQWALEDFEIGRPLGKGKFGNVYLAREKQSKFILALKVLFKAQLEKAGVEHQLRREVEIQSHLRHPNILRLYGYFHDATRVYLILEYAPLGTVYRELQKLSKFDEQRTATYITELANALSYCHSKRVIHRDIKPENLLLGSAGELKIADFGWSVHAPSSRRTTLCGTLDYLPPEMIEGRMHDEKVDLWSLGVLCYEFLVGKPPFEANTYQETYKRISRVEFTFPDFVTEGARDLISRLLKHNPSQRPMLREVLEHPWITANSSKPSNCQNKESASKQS

Test [3] has as its target T3, Aurora B kinase, human, on ProtoArray (human, UniProt Q96GD4 1-344).
T3 construct: Aurora B kinase, human, full length protein of the ProtoArray; source: bought: ProtoArray human protein microarray (Life technologies), individually purified and arrayed

The target in test [4] is T4, CSNK2A1, human, on ProtoArray (human, UniProt P68400 1-391).
T4 construct: CSNK2A1 (casein kinase II subunit alpha), human, full length protein of the ProtoArray; source: bought: ProtoArray human protein microarray (Life technologies), individually purified and arrayed

The target of test [5] is T5, CSNK2A2, human, on ProtoArray (human, UniProt P19784 1-350).
T5 construct: CSNK2A2 (casein kinase II subunit alpha'), human, full length protein of the ProtoArray; source: bought: ProtoArray human protein microarray (Life technologies), individually purified and arrayed

In test [6] the target is T6, Annexin 11, human, on ProtoArray (human, UniProt P50995 1-505).
T6 construct: Annexin 11, human, full length protein of the ProtoArray; source: bought: ProtoArray human protein microarray (Life technologies), individually purified and arrayed
T6 sequence (P50995 whole entry): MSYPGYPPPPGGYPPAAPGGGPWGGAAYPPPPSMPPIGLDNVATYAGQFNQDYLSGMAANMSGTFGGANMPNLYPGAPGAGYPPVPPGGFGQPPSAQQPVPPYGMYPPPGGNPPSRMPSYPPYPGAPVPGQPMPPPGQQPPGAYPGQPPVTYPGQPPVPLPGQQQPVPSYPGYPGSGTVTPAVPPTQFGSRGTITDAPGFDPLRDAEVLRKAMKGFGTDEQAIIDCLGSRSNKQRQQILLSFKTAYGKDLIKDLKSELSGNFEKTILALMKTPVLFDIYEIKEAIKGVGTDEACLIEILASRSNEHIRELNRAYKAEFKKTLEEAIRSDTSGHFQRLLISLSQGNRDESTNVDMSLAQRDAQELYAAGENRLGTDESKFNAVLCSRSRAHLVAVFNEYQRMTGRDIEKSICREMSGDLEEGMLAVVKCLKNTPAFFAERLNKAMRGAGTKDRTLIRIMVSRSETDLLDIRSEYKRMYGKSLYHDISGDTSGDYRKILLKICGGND

T1 sequence (P53350 whole entry): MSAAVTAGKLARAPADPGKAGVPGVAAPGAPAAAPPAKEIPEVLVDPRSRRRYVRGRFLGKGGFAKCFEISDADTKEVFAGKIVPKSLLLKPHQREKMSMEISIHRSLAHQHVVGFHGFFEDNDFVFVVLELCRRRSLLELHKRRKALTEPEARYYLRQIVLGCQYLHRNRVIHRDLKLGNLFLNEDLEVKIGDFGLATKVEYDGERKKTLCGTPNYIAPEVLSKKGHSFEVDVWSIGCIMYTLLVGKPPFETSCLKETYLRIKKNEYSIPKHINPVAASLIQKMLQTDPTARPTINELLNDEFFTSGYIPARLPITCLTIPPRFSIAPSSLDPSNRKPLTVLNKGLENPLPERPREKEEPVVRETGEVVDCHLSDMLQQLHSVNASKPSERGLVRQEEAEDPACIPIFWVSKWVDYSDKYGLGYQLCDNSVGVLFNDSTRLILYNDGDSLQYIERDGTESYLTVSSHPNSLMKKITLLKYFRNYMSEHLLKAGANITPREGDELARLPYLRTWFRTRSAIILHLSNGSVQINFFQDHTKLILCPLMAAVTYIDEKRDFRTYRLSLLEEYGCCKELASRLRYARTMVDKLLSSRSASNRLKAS
T4 sequence (P68400 whole entry): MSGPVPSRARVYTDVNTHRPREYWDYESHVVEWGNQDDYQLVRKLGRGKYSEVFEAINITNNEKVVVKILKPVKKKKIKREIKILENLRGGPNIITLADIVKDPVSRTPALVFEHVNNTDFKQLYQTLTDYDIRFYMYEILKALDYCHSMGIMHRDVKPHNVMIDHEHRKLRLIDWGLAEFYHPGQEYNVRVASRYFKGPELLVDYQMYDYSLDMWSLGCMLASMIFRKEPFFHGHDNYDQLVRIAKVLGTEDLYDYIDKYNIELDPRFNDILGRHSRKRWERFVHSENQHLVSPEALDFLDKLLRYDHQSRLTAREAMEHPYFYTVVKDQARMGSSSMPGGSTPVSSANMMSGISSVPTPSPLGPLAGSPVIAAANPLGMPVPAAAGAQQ
T5 sequence (P19784 whole entry): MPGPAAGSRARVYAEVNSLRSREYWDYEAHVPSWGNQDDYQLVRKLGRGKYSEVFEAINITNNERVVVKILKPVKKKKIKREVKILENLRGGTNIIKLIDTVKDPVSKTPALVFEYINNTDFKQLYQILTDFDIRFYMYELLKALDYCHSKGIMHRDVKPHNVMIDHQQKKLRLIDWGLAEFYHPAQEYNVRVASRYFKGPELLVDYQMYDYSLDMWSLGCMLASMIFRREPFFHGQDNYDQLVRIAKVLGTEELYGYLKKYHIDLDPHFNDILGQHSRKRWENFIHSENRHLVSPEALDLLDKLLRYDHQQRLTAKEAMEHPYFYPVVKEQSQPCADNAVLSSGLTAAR
T3 sequence (Q96GD4 whole entry): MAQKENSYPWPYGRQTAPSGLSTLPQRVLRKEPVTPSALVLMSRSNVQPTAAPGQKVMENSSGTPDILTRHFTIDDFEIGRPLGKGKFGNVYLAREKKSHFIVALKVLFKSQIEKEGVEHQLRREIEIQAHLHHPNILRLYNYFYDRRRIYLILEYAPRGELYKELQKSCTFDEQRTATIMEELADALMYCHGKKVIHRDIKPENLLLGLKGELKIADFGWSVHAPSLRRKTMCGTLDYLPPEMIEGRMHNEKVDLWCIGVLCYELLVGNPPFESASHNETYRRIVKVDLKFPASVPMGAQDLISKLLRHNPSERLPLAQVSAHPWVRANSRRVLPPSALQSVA

B1: AlexaFluor 532-A2C sorcin (natural protein, human)
chain: MCYPGHPGAGGGYYPGGYGGAPGGPAFPGQTQDPLYGYFAAVAGQDGQIDADELQRCLTQSGIAGGYKPFNLETCRLMVSMLDRDMSGTMGFNEFKELWAVLNGWRQHFISFDTDRSGTVDPQELQKALTTMGFRLSPQAVNSIAKRYSTNGKITFDDYIACCVKLRALTDSFRRRDTAQQGVVNFPYDDFIQCVMSV
modifications: AlexaFluor 532 C5-maleimide on thiol groups (A2C mutant made for the conjugation)
notes: In the functional row this id stands for unlabelled human wt sorcin (HS) from the same expression system; also called A2C-sorcin-AlexaFluor 532 maleimide; source: E. coli BL21(DE3), purified according to Meyers et al; labelled with AlexaFluor 532 C5-maleimide
B1: in test [1], the “fold increase of the interaction with 1 mM calcium against EDTA” value turned out to be 1.5 fold. The binding result in test [2], in test [3], in test [4], in test [5] and in test [6] was “binds” throughout.

Values taken from PMC3888430, “Sorcin Links Calcium Signaling to Vesicle Trafficking, Regulates Polo-Like Kinase 1 and Is Necessary for Mitosis” (PLoS ONE, 2014).
